Assays:
Assay in all cases: purified protein
[1] = substrate: CC1=NC(C(=O)O)CCCN1; type: biochemical, Stutzerimonas stutzeri; conditions: 10 mM 2-oxoglutarate, 1 mM FeSO4, 100 mM KCl, 100 mM TES pH 7.5, 35 °C, no catalase
[2] = substrate: CC1=N[C@H](C(=O)O)CCN1; type: biochemical, Stutzerimonas stutzeri; conditions: 10 mM 2-oxoglutarate, 1 mM FeSO4, 100 mM KCl, 100 mM TES pH 7.5, 35 °C, no catalase
[3] = substrate: CC1=NC(C(=O)O)CCCN1; type: biochemical, Sphingopyxis alaskensis; conditions: 10 mM 2-oxoglutarate, 1 mM FeSO4, 100 mM KCl, 100 mM TES pH 7.5, 15 °C, 1300 U bovine catalase
[4] = substrate: CC1=N[C@H](C(=O)O)CCN1; type: biochemical, Sphingopyxis alaskensis; conditions: 10 mM 2-oxoglutarate, 1 mM FeSO4, 100 mM KCl, 100 mM TES pH 7.5, 15 °C, 1300 U bovine catalase

Row | Protein | Km [1] [µM] | Km [2] [µM] | Km [3] [µM] | Km [4] [µM]
1 | (Ps)EctD, ectoine hydroxylase from P. stutzeri A1501 (Stutzerimonas stutzeri A1501) (protein, full-length, Strep-tag II fusion (tag kept), from plasmid pMP41 in E. coli BL21(DE3); EctD is a dimer in solution) MQADLYPSRQEDQPSWQERLDPVVYRSDLENAPIAAELVERFERDGYLVIPNLFSADEVALFRAELERMRQDPAVAGSGKTIKEPDSGAIRSVFAIHKDNELFARVAADERTAGIARFILGGDLYVHQSRMNFKPGFTGKEFYWHSDFETWHIEDGMPRMRCLSCSILLTDNEPHNGPLMLMPGSHKHYVRCVGATPENHYEKSLRKQEIGIPDQNSLSELASRFGIDCATGPAGSVVFFDCNTMHGSNGNITPSARSNLFYVYNHVDNAVQAPFCEQKPRPAFVAERENFKPLDIRPQQYL | 2600 ± 200 | 2300 ± 200 |  | 
2 | (Sa)EctD, ectoine hydroxylase from S. alaskensis (Sphingopyxis alaskensis RB2256) (protein, full-length, Strep-tag II fusion (tag kept), from plasmid pMP40 in E. coli BL21(DE3); dimer) MQDLYPSRQRADAEMRPRLDPVVHSEWTNDAPISARQAAAFDRDGYIVLEDIFSADEVAFLQKAAGNLLADPAALDADTIVTEPQSNEIRSIFEIHAQSPVMARLAADARLADVARFLLGDEVYIHQSRLNYKPGFKGREFYWHSDFETWHVEDGMPRMRALSMSVLLAENTPHNGPLMVIPGSHRTYLTCVGETPDDHYLSSLKKQEYGVPDEESLAELAHRHGIVAPTGKPGTVILFDCNLMHGSNGNITPFPRANAFLVYNAVSNRLEKPFGVEKPRPWFLARRGEPAALRVERGPLVETVPA |  |  | 3100 ± 300 | 800 ± 100

— paper PMC6890836, “Exploiting Substrate Promiscuity of Ectoine Hydroxylase for Regio- and Stereoselective Modification of Homoectoine” (Frontiers in Microbiology, 2019)
